The values below come from PMC6299030, “An Allosteric-Probe for Detection of Alkaline Phosphatase Activity and Its Application in Immunoassay”.

This series has as its target Streptavidin (on Sepharose beads) (UniProt P22629 25-183). Description: bead binding, flow cytometry and fluorescence microscopy; SA3 released from AP by lambda exo, no ALP; 70 mM Tris-HCl, 10 mM MgCl2, pH 8.0; 200 nM AP in 100 uL, 3 uL SA beads, 5 min at room temperature after enzyme steps at 37 C and 75 C inactivation. The settings on record: protein: commercial; tags: immobilized on Sepharose beads; chain copies: 4; label: 5'-FAM; hairpin with bulge. (In general: A flow cytometer gives signals particle by particle.)

Sequence of Streptavidin (on Sepharose beads) (P22629 25-183): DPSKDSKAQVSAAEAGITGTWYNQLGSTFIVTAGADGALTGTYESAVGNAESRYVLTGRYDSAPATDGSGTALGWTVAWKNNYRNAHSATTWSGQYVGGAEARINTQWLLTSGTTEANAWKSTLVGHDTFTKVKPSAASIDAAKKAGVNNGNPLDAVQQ

With ATTGACGCGTGTGACGCAACACTCAAT (structured_DNA) [SA3], the binding result is on record as “binds”.
